Results taken from a protein production outcome set (Wang et al. 2014).

Assay: label from the status in PepcDB records
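Further: failed if final PepcDB status was selected cloned or expressed and not failed if soluble or beyond.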

**Q.** With “SYNYNIKRRIAEKAAELVQDNDTIMIESGSTCALLAEVLCQTKRNIKVITNSCFIANYIRQYSSCQIILLGGYYQPNSEVTVGPLLKEMISLFHVNRVFVGTDGFNKDLGFMGKDMMRSEGVRYMADAAEEVVILTDSSKFSKTSLVHQLSLADVNRVITDQALDKQTQELLSASGLVLDFVS” as the sequence, how does the protein production read?
**A.** failed

**Q.** With “SYVQDYRSPFIASVSDQHGVVYITENKNKTVVIPCLGSISNLNVSLCARYPEKRFVPDGNRISWDSKKGFTIPSYMISYAGMVFCEAKINDESYQSIMYIVVVVGYRIYDVVLSPSHGIELSVGEKLVLNCTARTELNVGIDFNWEYPSSKHQHKKLVNRDLKTQSGSEMKKFLSTLTIDGVTRSDQGLYTCAASSGLMTKKNSTFVRVHEKPFVAFGSG” as the sequence, how does the protein production read?
**A.** not failed

**Q.** For “TAMRVSPHHPAPTPNPRASLNHSTAFNPQPQSQMQDTRQIQPSPPWSYDQSYQYLGSIASPSVHPATPISPGRASGMTTLSAELSSRLSTAPDLTAFSDPRQFPALPSISDP”, which protein production is on record?
**A.** failed

**Q.** For “TDSTGIDLHEFLVNTLKKNPRDRMMLLKLEQEILEFINDNNNQFKKFPQMTSYHRMLLHRVAAYFGMDHNVDQTGKAVIINKTSNTRIPEQRFSEHIKDEKNTEFQQRFIL”, which protein production is on record?
**A.** not failed

**Q.** Which protein production does the source give for “TEKTALHLRARRNFRDFRGVSRRTGEEWLVTVQDTEAHVPDVHEEVLGVVPITTLGPHNYCVILDPVGPDGKNQLGQKRVVKGEKSFFLQPGEQLEQGIQDVYVLSEQQGLLLRALQPLEEGEDEEKVSHQAGDHWLIRGPLEYVPSAKVEVVEERQAIPLDENEGIYVQDVKTGKVRAVIGSTYMLTQDEVLWEKELPPGVEELLNKGQDPLADRGEKDTAKSLQPLAPRNKTRVVSYRVPHNAAVQVYDYREKRARVVFGPELVSLGPEEQFTVLSLSAGRPKRPHARRALCLLLGPDFFTDVITIETADHARLQLQLAYNWHFEVNDRKDPQETAKLFSVPDFVGDACKAIASRVRGAVASVTFDDFHKNSARIIRTAVFGFETSEAKGPDGMALPRPRDQAVFPQNGLVVSSVDVQSVEPVDQRTRDALQRSVQLAIEITTNSQEAAAKHEAQRLEQEARGRLERQKILDQS” here?
**A.** failed

**Q.** With “TIADVQSSRDLRNLPINQVGIKDLRFPITLQTAEGIQSTIARLTMTVYLPAEQKGTHMSRFVALMEQHAEALDFAQLRKLTTEMVALLDSRAGKISVSFPFFRKKTAPVSGIRSLLDYDVCLTGEIKDGAYGHSMKVMIPVTSLCPCSKEISQYGAHNQRSHVTVSLTADAEVGIEEVIDYVEAQASCQLYGLLKRPDEKYVTEKAYENPKFVEDMVRDVATSLIADKRIKSFVVESENFESIHNHSAYAYIAYP” as the sequence, how does the protein production read?
**A.** not failed

**Q.** Which protein production does the source give for “TKDFNLNVSATYNFNKNNIDELDGGKDIYYNSGWGSSAQHPSYDYVLSEGKPVGVIRGFKSAGFYTVDDFDYVDGVYKLKAGIPDISTAATGTYRRPSELQVADGQIAFPGALKLQDVDKSGIVDLDDVVDLGEVQAKHTGGFSLNGNYKNIDFGANFTYQIGGKVYNVATMSQLSGGKETGLGLNKYKDLAGAFQLYDIQNGNLVPVIEPTALKQLNANAKYALPYYEDAPILSDYVEDASYLRLNTLTVGYTLPKAWTTKAYMQKVRIYVTGGNLFCITGYSGLDPEVNSDPDKAKSYPTLGLDWGAYMRARTFTVGLNVEF” here?
**A.** failed

**Q.** Which protein production does the source give for “TLHKERRIGRLSVLLLLNEAEESTQVEELERDGWKVCLGKVGSMDAHKVVAAIETASKKSGVIQSEGYRESHALYHATMEALHGVTRGEMLLGSLLRTVGLRFAVLRGNPYESEAEGDWIAVSLYGTIGAPIKGLEHETFGVGINHI” here?
**A.** not failed

**Q.** For “TLRKARVKGLFLLSSGLQFSQSDHHPGGIPLAVIRHMSRQLKRNRTDTLTSFYEQMFSESEKSHGLDQAFLQTLEAGDPFYHWQNESLIAGLDYLANVQLLQGWPTVSVPITWIHGSDDTICPSPASGLFSPSKRLIIVEGAGHVPFYTQDSVVINAWEELLGN”, which protein production is on record?
**A.** failed

**Q.** For “TPEHRAVAREVAAETFVLLKNENHLLPLEEKGKIALIGPMADARNNMCGMWSMTCTPSRHGTLLEGIRSAVGDKAEILYAKGSNVYYDAEMEKGAVGIRPLERGNDQQLLAEALRTAARADVIVAAVGECAEMSGESPSRTNLEIPDAQQDLLKALVKTGKPVVLLLFTGRPLILNWESEHIPSILNVWFGGSETGDAVADVLFGKAVPCGKLTTTFPRSVGQLPLFYNHLNTGRPDPDNRVFNRYASNYLDESNEPLYPFGYGLSYTDF”, which protein production is on record?
**A.** not failed

**Q.** With “TQKKVEVETLEQKIIRADRELAELLEIDEGDEVNYRVVYLRANGEIYAKAISFTPLKRLENSFREDLMRADIPIGKIMRKHNIEARREIRWSRVEEADLALAKELGIADRRVISRNYNIIHRGKVLINITEFFPMERFR” as the sequence, how does the protein production read?
**A.** failed

**Q.** For “TSAGWVSVAIGPLPLRCWWSPPAGCRRDIDNISIENRAYIVLPEVFGVNAWVRSVADRLAAQGIPALAVPLFARTAPELELAYESCDLAQGRAHKDATTASQILSDVSAAVAWLQQRCPNAAIDLAGFCFGGHAALLAATLPQIRHSFDFYGAGVSRMRPGGGAPSLELLPQVSGQLTCVCGSADPLIPEEDRTTIRSALAAADPSGKRMSYIEIDGVDHGFMCEARGSFDADASALGWQLMLA”, which protein production is on record?
**A.** failed

**Q.** With “TSLEEITKAIMADSQNKVFTEKNIEPLFAAPKTARINIVGQAPGIKAQESRLYWNDKSGDRLREWMGVDYDTFYHSGYFAVIPMDFYYPGKGKSGDLPPRKGFAQKWHQPILDLLPDIQLTILIGNYAQKYYLHQKSSVKLTDTVAHYKKYLPDYFPLVHPSPRNQIWMSRHPWFEAQVVPDLKKIIQQII” as the sequence, how does the protein production read?
**A.** not failed

**Q.** For “TTLASIGKDIIEDADGIAMPHQWLEGNLPVSAKCTVCDKTCGSVLRLQDWRCLWCKAMVHTSCKESLLTKC”, which protein production is on record?
**A.** not failed

**Q.** With “TVNVTTKKTPPSQPPGNVVWNATDTKVLLNWEQVKAMENESEVTGYKVFYRTSSQNNVQVLNTNKTSAELVLPIKEDYIIEVKATTDGGDGTSSEQIRIPRITS” as the sequence, how does the protein production read?
**A.** not failed

**Q.** For “TWILTADSPSLLGTVDVVTRYLFEQRCYVTEHHSFDDRLAQRFFIRVEFRAGDGFDEASFRAGLAERVAPFGMRTELTAPGYRSQVAIMVSKADHCLNDLLYRQRIGQLPMDVVAVISNHPDLEPLARWHGIPYHHFPLDPNDKPAQEARVWQVLEESGAELVILARYMQVLSPELCRRLDGWAINIHHSLLPGFKGAKPYHQAYQKGVKLVGATAHYINNDLDEGPIIAQGVETVDHAHYPEDLIAKGRDIECLTLARAVGYHIERRVFLNANRTVVL”, which protein production is on record?
**A.** failed

**Q.** Which protein production does the source give for “TWTDIRYREEGNAGFLSFSFPGGAMSTAQCRRLLDAYRDACTRPTSVLVLGGERDFFSNGIHLNVIEAADDPGAESWANINAIDDLVEAVLTTTDR” here?
**A.** failed

**Q.** For “VATLNESIEAGLEPGAVALILEAFPIEDRVRLWRALPLELHIDVLTEMRADVRFSIINALSEVELKLTLAKLDNLSLIEWADSLPESIINEALALIEKDELELYDQANEYEDDELGRWAERKIITLPFNITVGTAKQLMERYSYDTPQQVYLINRNKQFRGAVNYYEILRSDSGVRLKTLEIETVTVLDSKMTLPEAVEALEHSALPALPVTDADQTLIGEVDWQFALSTQREIYEARLMAGTGMDEGDDLFAPVLKSSQKRGV”, which protein production is on record?
**A.** not failed

**Q.** With “VAVINSAQDAPSEAPTEVGVKVLSSSEISVHWEHVLEKIVESYQIRYWAAHDKEEAANRVQVTSQEYSARLENLLPDTQYFIEVGACNSAGCGPPSDMIEAFTKKA” as the sequence, how does the protein production read?
**A.** not failed

**Q.** With “VDAGRGAEHDEAVTSDDSASVEVPRRATPADAATVAQMLHDFNTEFGAPTPGTDELASRLSHLLAGEDVVVLLAGEPPTGLAVLSFRPNVWYPGPVAILDELYVRPGRRGHRLGSALLAASCGLVRSRGGALLEINVDGEDTDARRFYEARGFTNTEPNGTEPMLYYYREL” as the sequence, how does the protein production read?
**A.** not failed

**Q.** For “VDKCDEPLSILVRNNKGRSSTYEVRLTQTVAHLKQQVSGLEGVQDDLFWLTFEGKPLEDQLPLGEYGLKPLSTVFMNLRLRGGGTEP”, which protein production is on record?
**A.** failed

**Q.** For “VDKKAPQISFQARLLRDNVTIFLDFSGRGLFQRGYREHSGAAPLKENLAAALIIRSGWLNDTSKPLVDPMCGSGTILIEAVSMAAKQAPAINRQSWGFEAWLSHDNAVWQKQLTLAIDSSEENMSNLKVKVFGIDIDERVLRTAQQNARNAQLHQYIEFTCKNTNDMDNTFGQPGTILFNPPYGERIGELPELVENFVLFGQKLKMQFKDWRIAILTANVDLLSMLKLSSFKRYKFKNGPLDCQLALYNLDAKQG”, which protein production is on record?
**A.** failed

**Q.** With “VEPVPDTHLRGITCLDHENEKVNMYCVSDDQLICALCKLVGRHRDHQVASLNDRFEKLKQTLEMNLTNLVK” as the sequence, how does the protein production read?
**A.** not failed

**Q.** For “VGTIDQLVKRVIEGSLSPKERTLLKEDPAYWFLSDENSLEYKYYKLKLAEMQR”, which protein production is on record?
**A.** not failed

**Q.** For “VILSATRPFVCSRAPLGLSESAFMPLNGRTKMITKMPFRLVSLSCLELHRASSFWDIGFCTGSVSIEAKLNFPHLHITAFEIRPEGAELMPVNSRRFGAPGIAYRIGDFMEEDISSLAPPDAVFIGGHGGRLVEMIAKVHSVMTKGGLLVFNSVSEESRHLFLTGIEACGMELLSSIRLTADGNNPIDILQARKKE”, which protein production is on record?
**A.** failed

**Q.** Which protein production does the source give for “VITVGNYKGGAGKTTNVVLLAYKLAKKGLKVCVLDLDPQSNATKSLLLTKSSLYQDEVVTIEKTLMTGISEKNLDGLEVKIMDNLYLLPSYIDFEDFPKYLYKNTSNQREEDYYLKNIFTPLQGKYDIVLIDVPPMSKAVTRNAVICSDYVLISLQTHERSLSGAESYVEELNKLHNEYDLDLEVVGVLPVIHKNNGSVDQYVMEVAKETFGEDNLFENVVPQMERIKRFDVNGITDKDRHDQKVLNLYDKVSDELLD” here?
**A.** failed

**Q.** Which protein production does the source give for “VIVDSVGNVLSDGDTVSITKTIKVKGAQQPLKSGMKARNIRLKPEVGTGPEDHNIECKIDGFGQMILKPAVVKKIV” here?
**A.** failed

**Q.** For “VIWNQLDARERLERQNDLFRRAQKLANIGAWEYEVSSGEVFWTRQVREIHGLPQGYEPTAEEAIAAYHPEDQPVIQGMIERAVEEEVPFDRELRLGGEALPVGHEQKEGRWVRARGTPQIEAGEVTSVRGTFQDITERKAREHVLENEREALRSMYRITADREAGFEEKARRLIDLGREHLGLPYGFLTRITDETQEIVFASGTHPLLQPGESCPLSRSYCRNTIQEERSLVVQDAVAEGWAGDPAHQTFELGAYVGAQIIVEGELYGTFCFAAEEPREQAFAGRERVFVELMAQWASYELGQRRAKAQLKRQNARLDSFAGLVAHDLRNPLNVATGRLRLAREER”, which protein production is on record?
**A.** failed

**Q.** For “VKAAQGLLLSVFHLYPKRKVEIILYNEKWAECFDEEKERLKLVFGPEIIAIHHIGSTSIPNMAAKPIIDMLIEVRSIEAVSQFDEQMKANGYTPKGENGIAGRRYFQKGGNKRTHHVHMYEQGNPAIERHLLFRDYLRAHPNIAKEYAVLKKQLAAQHPDSINQYIQGKDEWIKTAEENAKRWKKGRNNANGSIVCYNSENDENGGFTL”, which protein production is on record?
**A.** failed

**Q.** Which protein production does the source give for “VLAPNVYFNPDAPPRKKRPLNVCAPEVVFFPTEDGVNLRLTRYNGGGKGPVMLVHGLGVGSNIFSTDTISTNLLEYLYQHGYDVWLLDFRVSILLPASQQQWDGDQVARYDYPAAIRRIREATGAADVQCVVHCYGATTFFMSMLAGLEGVRSVVCSQIAADIVVPTATQVKTGLHLPTVLDKLGVSSLTAYTASDSNWFEKLYDTALKGYALAEAQGYCNNPVCHRITFMYASLYRHETLNETLHDNLHELFGVANMRTMEHLARMCREGRLVSFDGDDIYMPHFDRLQMPILFISGEQNECYLPESTERTFDKLAQRFGPERYSRLVVPGYGHIDCMFGKNAAADVYPAIVAHLDKT” here?
**A.** failed

**Q.** For “VLESVRKEWLEIMDRELLEKARSLINANYISTTLSTVDRNYEVNIAVISVLEMIGDDTIICARFGADKTYANLKETGKGVFMVLLTDNDKSKDGIRVYVELSADLQEGEYFDRIKKRLDNTTYKNFPLKNCLVFKIVKILPVSLLRK”, which protein production is on record?
**A.** not failed
